{
  "source": "the supplement of paper PMC12764529",
  "note": "± gives the half width of the 95% confidence interval.",
  "data": [
    {"experiment": "folding stability dG unfold (combined trypsin and chymotrypsin); higher = more stable", "summary_of_the_method": "(§1)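 Unfolding free energy was derived, per protease or combined, by relating Bayesian-fitted K50 values from sequencing counts to a sequence-predicted unfolded-state K50 and a shared folded-state K50. The underlying digests exposed cysteine-free mini-proteins under 80 residues, in a PA-tagged cDNA display construct, to trypsin and chymotrypsin at 11 threefold-diluted concentrations and to a no-protease condition. A filter kept only designs with AlphaFold2 dimer inter-PAE above 15.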", "units": {"folding stability dG unfold": "kcal/mol"}, "values": [
      {"sequence": "SAGGWLWVRTNGRIFVIEIKTEMKWEYDPGDPGQWRMDMEPEIEVRPIPPDDIKPLPPVDEDDPENKSAGGS [r16_395_TrROS]", "folding stability dG unfold": "1.87 ± 0.32"},
      {"sequence": "SAGGSAGGSAGGMKVERVEVVELPNGQRVLTRTLEVVPPDGSSRVLETEVRFYPPDEALLSAGGSAGGSAGG [r7_917_JUSTAS]", "folding stability dG unfold": "0.0413 ± 0.065"},
      {"sequence": "MAIVHIDFSFPDGGPTLSFEIPVPNLGPAGEEEILERASELTGISREVIRKNTEIEPIPETGDYKVTINVSS [r1_285_JUSTAS]", "folding stability dG unfold": "1.36 ± 0.069"},
      {"sequence": "SAGGALENAPITVNVTITITLKDEKGNTPVITIPVTATVTSQAEADALVNATAAALEAALGATVTVASAGGS [r8_149_JUSTAS]", "folding stability dG unfold": "1.95 ± 0.096"},
      {"sequence": "SAGGSAGGSAGMINPKDVVEVSSSTDPNSSSGTLTVTLKDGKEITISYSSSSEAEAALLGSAGGSAGGSAGG [r11_339_JUSTAS]", "folding stability dG unfold": "1.44 ± 0.2"},
      {"sequence": "SAGGMVTKTYEFEGENGGKILIEVKEDPDKPVVTVKFYRPDGKPLFEAEIEADSIEDAIQQAKDLLASAGGS [r16_158_TrMRF]", "folding stability dG unfold": "3.66 ± 0.13"},
      {"sequence": "SAGGSAGGSFEFPENRPNAKVKVVVQRPDGSPEEFEAEVLPDGTVTLDLPDYPIDRILSVEFGSAGGSAGGS [r12_477_TrMRF]", "folding stability dG unfold": "-0.221 ± 0.17"},
      {"sequence": "SWVEIPPDKIKDLMNRFQNGDWEEIVDLLKDLGFKNVTIEPQRNNGQRYFTIWVEHPDGPVIIEMPPSDISA [r9_783_TrROS]", "folding stability dG unfold": "2.72 ± 0.097"},
      {"sequence": "SDLEAVLAAIDAVPPGTVVRIRLTLPDGVPLEITFDAGKEEIKALLEELVKEHPDVPIGIEIEVFPPEELSA [r9_37_TrMRF]", "folding stability dG unfold": "3.61 ± 0.081"},
      {"sequence": "SAGGSAGGSAGGPTVTVKVKLEDGSTATVTYDLDTGELYIEVNGKTYKFPLGSKVEIEEVSAGGSAGGSAGG [r7_434_TrROS_Hall]", "folding stability dG unfold": "3.31 ± 0.17"},
      {"sequence": "SAGGSASPFYIAYDPNKPNVATIYPSSQPNLSGSNGATVTPLTDEAELAALKAELKAAGITTITFSSAGGSA [r15_1004_JUSTAS]", "folding stability dG unfold": "0.65 ± 0.11"}
    ]},
    {"experiment": "folding stability dG unfold from trypsin proteolysis; higher = more stable", "summary_of_the_method": "as §1", "units": {"folding stability dG unfold": "kcal/mol"}, "values": [
      {"sequence": "SAGGKKYYLIKITVKTEKKEYTLPDGSKVTVEKTYELTIIVESKEEAEKLAEELAKKYNLEVEIVPLSAGGS [r8_131_TrROS_Hall]", "folding stability dG unfold": "2.95 ± 0.13"},
      {"sequence": "SAGGSVVPASEPVTIPDTATGTTLTLPTPAGATITPDPATNTTTVTFTDGDRASSVTFVNGAATSASTASAG [r5_22_JUSTAS]", "folding stability dG unfold": "-0.53 ± 0.098"},
      {"sequence": "SAGGSAGGSNMPPGMEVEMEPIIEREIKNPNGRKLKIKIYVMKIRPPGGPPMFFIALDIQILDSAGGSAGGS [r12_544_TrROS]", "folding stability dG unfold": "3.48 ± 0.16"},
      {"sequence": "SMEELLEKALEEAKEAAEKGEKTVIIEIRVDGKTFRIEIDVETGEIVKIEKEKREDGSEIFRIEIKLPEPSA [r9_308_TrROS_Hall]", "folding stability dG unfold": "0.695 ± 0.07"},
      {"sequence": "SAGGSAGGSAMYVKVTFTYPDGSTTTVTTQLDEEEAKKLVEELAPLPVEAKLEIIPEDVPESAGGSAGGSAG [r3_35_JUSTAS]", "folding stability dG unfold": "0.344 ± 0.073"},
      {"sequence": "SAGGEKLETFPFKGDDDREVTLVRFEGEDRILLLVYDPDTDKVLLIAPDAIAEIDLKTGEAKVILKKSSAGG [r13_416_TrMRF]", "folding stability dG unfold": "1.66 ± 0.046"},
      {"sequence": "SAGGSAPPQTIPIIIKDPNGKVRIEPVQFDPGPGNFNWDIEHPNGEKHTITFTGPPDDLPPGDYIKSAGGSA [r15_596_TrROS]", "folding stability dG unfold": "-0.575 ± 0.13"},
      {"sequence": "SAETTTETKVEEITLEDKKATINITTYSDGSTEATITIYGNDPKVKEKVKEYIKKKDPNIKITKIETKESAG [r14_611_JUSTAS]", "folding stability dG unfold": "1.85 ± 0.083"},
      {"sequence": "SAGGSKKIVKEMKSKEVIDLAKKLKEKKDIIIVVKLNGKVKVLDLDKVKPIPDKNVKAIIEIKPKKKSAGGS [r16_628_TrMRF]", "folding stability dG unfold": "0.571 ± 0.22"},
      {"sequence": "SAGGSAGGSAGMETPVLYNVTVTPPDGSTTTYTVPEGLSEEEIRALLNVPASDTITFSPVSAGGSAGGSAGG [r11_340_JUSTAS]", "folding stability dG unfold": "1.87 ± 0.042"},
      {"sequence": "SAGGDEIVDRIKQAFHNFGYPVRIDDISPPNGKIYIRISPAMRENMKPAIIEIPFPGIKDITIEMWPSAGGS [r8_318_TrROS]", "folding stability dG unfold": "1.25 ± 0.14"},
      {"sequence": "SAGGMKYLIKIEVDGKEIEIEAESLEEAEELAKKLEEEGIEIEVKKIEIYELPEEEEEEEEEKKKKESAGGS [r8_336_TrROS_Hall]", "folding stability dG unfold": "0.249 ± 0.11"},
      {"sequence": "SAGGSAGGSAGGKKTLKLPVKITPVKDGLLITLPDGTPILVPKNVTVETTDTTAYVTIGSAGGSAGGSAGGS [r10_305_TrMRF]", "folding stability dG unfold": "0.21 ± 0.067"},
      {"sequence": "SAGGSAGGSAGGSMLVTEVSISPLPNGTVKVTTKLVLEPPDGVSVLEEESSVVSPEELSSAGGSAGGSAGGS [r4_389_JUSTAS]", "folding stability dG unfold": "0.11 ± 0.028"},
      {"sequence": "SAGGKWIMFMIPPGEEIEDPNGLEIRYDPEEGEFEIENNKRPVKIPVHPHPDGWYMITIEIPPGVEVSAGGS [r16_245_TrROS]", "folding stability dG unfold": "1.5 ± 0.074"},
      {"sequence": "SMKIYILSSGDKEKVLAEVKEKYPDLEIELFEDIEEAKKAAEKGNLLISNGDEELAKEFEEKYNVKVIIKSA [r9_380_JUSTAS]", "folding stability dG unfold": "1.41 ± 0.039"},
      {"sequence": "SLTLTDPVLVLVEVDLYNPETGAPTKRSLAVLVPPGTPVTVTLPGVHPDARVRVTVYTPNGKPLGEFELPSA [r9_478_TrMRF]", "folding stability dG unfold": "2.1 ± 0.13"},
      {"sequence": "SDDKNMKPVKFKVEIEEERIEENGKKYIKIEVTWPGGNTVKIWFDPDKLIITFPVRSVEDVLEEVKDLIKSA [r9_662_TrROS]", "folding stability dG unfold": "2.19 ± 0.064"},
      {"sequence": "SAMKLEAPVVLDGKPVEVEFDAEPFEAPDGDVYYLVPLKVTFPDGRTYTARLRLKPGGKIVSVELLSDESAG [r14_341_TrMRF]", "folding stability dG unfold": "1.93 ± 0.028"},
      {"sequence": "SAGGNMWEQIRMIVRELAKEGHPWITFDKIHKELGRPITPEWREWLRDAGFIEHDPNGSMTFRIPPGASAGG [r13_188_TrROS]", "folding stability dG unfold": "1.36 ± 0.032"},
      {"sequence": "SAGGWRIKLERDPENGKIKVSIERSPNEGYATVEVKLPNGKPLEIPGPMDSPDEMEEKARDYIKKLLSAGGS [r16_319_TrROS]", "folding stability dG unfold": "0.777 ± 0.09"}
    ]}
  ]
}
